From patent US20260055201A1 (SHENGHE CHINA BIOPHARMACEUTICAL, published 2026) come the findings set out here.

Like-named read-outs stand apart in the source and are kept apart here.

Assay [1] has as its target T1, Human TNFR2 mFc (manufacturer: Kaixia, CAT: TN-HM3R2) (human, UniProt P20333 23-257).
T1 construct: treated as one molecule; also called Human TNFR2 mFC (KaKa, CAT: TNF-HM3R2); human TNFR2 mFC protein; not shown: mFc part
T1 sequence (looked up): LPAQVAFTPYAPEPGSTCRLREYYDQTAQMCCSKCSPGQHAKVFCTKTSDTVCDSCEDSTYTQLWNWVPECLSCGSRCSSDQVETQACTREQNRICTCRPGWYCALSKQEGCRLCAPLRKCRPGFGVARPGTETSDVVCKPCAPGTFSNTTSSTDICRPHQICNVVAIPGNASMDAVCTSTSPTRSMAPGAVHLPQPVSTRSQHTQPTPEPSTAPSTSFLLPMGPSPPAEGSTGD
The assay is described as follows: blocking ELISA: human TNFR2 mFc coated, antibody titrated together with human TNF alpha His (blocked ligand), anti-His detection, OD450. Here is the method: (§1) The coating solution was poured off. Each well was washed with 1×PBST at 300 μL, washed 4 times with a plate washer, and patted dry on a flat paper. It was blocked with 3% skim milk powder at 300 μL/well, and incubated at 37° C. for 1 h. The blocking solution was poured off, washed 4 times with a plate washer, and patted dry on a flat paper. Negative control and positive control were set up. […] The positive control and antibody were diluted diluted to 100 nM with 3% skim milk powder as the starting concentration, and then diluted by 3-fold gradient (11 gradients in total), and a blank well was set up and only the diluent was added. […] The liquid in the well was discarded, washed 4 times with a plate washer, and patted dry on a flat paper. The anti his antibody (Abcam, Cat: ab1187) was diluted with 3% skim milk powder at 1:5000, 100 μL was added to each well, and incubated at 37° C. for 1 h. It was washed 6 times with a plate washer, and patted dry on a flat paper. TMB color developing solution was added at 100 μL/well, and wrapped with aluminum foil. Color development was performed at 37° C. in the dark for 8 min. Termination solution 1M HCl was added to terminate the color development reaction at 100 μL/well. Readings were taken at 450 nm on an ELISA reader.
A general note: In an ELISA, binding on a coated surface is turned into a signal by an enzyme label.

In assay [2] the target is T2, Human TNFR2 His (manufacturer: SINO, CAT: 10417-H08H) (human, UniProt P20333 23-257).
T2 construct: Bought protein; also called human TNFR2 protein; TNFR2 protein; not shown: His tag
T2 sequence (looked up): T1 sequence (looked up)
The assay is described as follows: bridging flow cytometry: antibody on CCR8-CHO-K1 cells captures human TNFR2 His, FITC anti-His (PBS background 15212). As for the experimental part: The cells after adding the sample were incubated at 4° C. for 60 min, and then washed twice with excess FACS buffer. Resuspended the cells in 100 μL FACS buffer and added FITC anti His tag (Abcam, Cat: ab1206) fluorescent secondary antibody carrying FITC to the sample. It was incubated for 30 min and washed twice with excess FACS buffer. Resuspended the cells in flow buffer and then detected and analyzed using a flow cytometer.
For orientation: Flow cytometry measures light scatter and fluorescence of single cells or particles in a stream.

The target in assay [3] is T3, human CCR8 on CCR8-CHO-K1 cells (human, UniProt P51685 1-355).
T3 construct: CHO cells overexpressing human CCR8 by lentiviral transduction
Description: flow cytometry on CCR8-CHO-K1 cells, APC anti-human IgG Fc secondary antibody, Average-APC. As for the experimental part:
The purified antibodies were diluted to 120 nM with FACS buffer, using this as the starting concentration, and then diluted by 5-fold gradient (6 gradients in total). […] The cells were incubated at 4° C. for 60 min, then washed twice with excess FACS buffer. Resuspended the cells in 100 μL FACS Buffer and Added Fluorescent Secondary antibody APC (Biolegend, Cat: 109306) against human IgG FC to the sample. It was incubated for 30 min and washed twice with excess FACS buffer. Resuspended the cells in flow buffer and then detected and analyzed using a flow cytometer.

Assay [4] has as its target T4, human TNFR2 on TNFR2-CHO-K1 cells (human, UniProt P20333 23-461).
T4 construct: CHO cells overexpressing human TNFR2 by lentiviral transduction
T4 sequence: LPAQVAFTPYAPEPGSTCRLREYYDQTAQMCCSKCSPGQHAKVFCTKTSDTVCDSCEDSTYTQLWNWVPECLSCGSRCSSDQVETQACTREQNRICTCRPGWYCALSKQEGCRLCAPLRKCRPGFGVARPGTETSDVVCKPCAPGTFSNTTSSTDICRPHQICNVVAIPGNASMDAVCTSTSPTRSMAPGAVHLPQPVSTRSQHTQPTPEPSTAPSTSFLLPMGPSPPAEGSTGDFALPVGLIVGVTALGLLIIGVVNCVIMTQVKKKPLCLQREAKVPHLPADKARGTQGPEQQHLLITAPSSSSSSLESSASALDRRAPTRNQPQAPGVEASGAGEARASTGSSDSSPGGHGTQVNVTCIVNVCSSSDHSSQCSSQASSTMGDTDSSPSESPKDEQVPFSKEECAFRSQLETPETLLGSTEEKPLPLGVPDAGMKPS
The assay is described as follows: flow cytometry on TNFR2-CHO-K1 cells, APC anti-human IgG Fc secondary antibody, Average-APC. Here is the method:
The purified antibodies were diluted to 120 nM with FACS buffer, using this as the starting concentration, and then diluted by 6-fold gradient (7 gradients in total). […] The cells were incubated at 4° C. for 60 min, then washed twice with excess FACS buffer. Resuspended the cells in 100 μL FACS buffer and added fluorescent secondary antibody APC (Biolegend, Cat: 109306) against human IgG FC to the sample. It was incubated for 30 min and washed twice with excess FACS buffer. Resuspended the cells in flow buffer and then detected and analyzed using a flow cytometer.

The target of assay [5] is T1, Human TNFR2 mFc (manufacturer: Kaixia, …). Description: blocking ELISA: human TNFR2 mFc coated, antibody titrated together with human TNF alpha His (blocked ligand), anti-His detection, OD450. Here is the method:
as §1
This is another data set of the same source.

B1: TR-H (bispecific antibody, human IgG1, kappa)
light: EVQLVESGGGLVQPGGSLRLSCAASGSRLDYYAVAWFRQAPGKEREEVSCITYSGGSTNYAESVKGRFTISRDNSKNTLYLQMNSLRAEDTAVYYCTTEPYGSSCPLSGYDTWGQGTLVTVSSGGGGSGGGGSGGGGSDIVMTQSPPTLSLSPGERATLSCRSSKSLLHSNGNTYLYWFQQKPGQSPQLLIYRMSNLASGIPDRFSGSGSGTDFTLTISRLEPEDFAVYYCMQHLEYPFTFGQGTKLEIKRTVAAPSVFIFPPSDEQLKSGTASVVCLLNNFYPREAKVQWKVDNALQSGNSQESVTEQDSKDSTYSLSSTLTLSKADYEKHKVYACEVTHQGLSSPVTKSFNRGEC
heavy: not shown
notes: also called antibody TR-H
Regarding B1, the “IC50 (read off the curve)” value in assay [1] was about 3 nM. In assay [2], the “Average FITC-A” value was 34200. The binding result in assay [3] is “binds”.

B2: anti-TNFR2 control antibody (SEQ ID NO: 52 and SEQ ID NO: 53, constant region of human IgG1 SEQ ID NO: 54 and SEQ ID NO: 55) (antibody, V domains shown)
VH: EVQLVQSGAEVKKPGATVKISCKVSGYSITDYLLHWVQQAPGKGLEWMGWIDPEDAKTKYGQKFQSRVTITADTSTDTAYMELSSLRSEDTAVYYCAANSGTGTMDAWGQGTLVTVSS
VL: DIVMTQSPATLSVSPGERATLSCKASQNVGSNVDWYQQKPGQSPRVLIYKASIRYTGIPARFSGSGSGTEFTLTISILQSEDFAVYFCMQSKSYPITFGQGTKLEIKR
notes: also called positive control 1
In the case of B2, the “EC50 (read off the curve)” value in assay [4] was about 0.3 nM.

B3: anti-CCR8 control antibody (variable region SEQ ID NO: 9 and SEQ ID NO: 13, constant region of human IgG1 SEQ ID NO: 54 and SEQ ID NO: 55) (antibody, V domains shown)
VH: EVQLVESGGGLVQPGGSLRLSCAASGFTFNTNAMNWVRQAPGKGLEWVGRIRTKSNNYATYYAESVRDRFTISRDDSKNSLYLQMNSLKTEDTAMYYCVRGGYGIRGEYTMDYWGQGTLVTVSS
VL: DIVMTQSPPTLSLSPGERATLSCRSSKSLLHSNGNTYLYWFQQKPGQSPQLLIYRMSNLASGIPDRFSGSGSGTDFTLTISRLEPEDFAVYYCMQHLEYPFTFGQGTKLEIKR
As to B3, the “EC50 (read off the curve)” value in assay [3] is about 0.3 nM.

B4: TR-E (bispecific antibody, human IgG1, kappa)
light: DIVMTQSPPTLSLSPGERATLSCRSSKSLLHSNGNTYLYWFQQKPGQSPQLLIYRMSNLASGIPDRFSGSGSGTDFTLTISRLEPEDFAVYYCMQHLEYPFTFGQGTKLEIKRTVAAPSVFIFPPSDEQLKSGTASVVCLLNNFYPREAKVQWKVDNALQSGNSQESVTEQDSKDSTYSLSSTLTLSKADYEKHKVYACEVTHQGLSSPVTKSFNRGECGGGGSGGGGSEVQLVQSGAEVKKPGATVKISCKVSGYSITDYLLHWVQQAPGKCLEWMGWIDPEDAKTKYGQKFQSRVTITADTSTDTAYMELSSLRSEDTAVYYCAANSGTGTMDAWGQGTLVTVSSGGGGSGGGGSGGGGSDIVMTQSPATLSVSPGERATLSCKASQNVGSNVDWYQQKPGQSPRVLIYKASIRYTGIPARFSGSGSGTEFTLTISILQSEDFAVYFCMQSKSYPITFGCGTKLEIK
heavy: not shown
notes: also called antibody TR-E
Turning to B4, the “Average FITC-A” value in assay [2] stood at 61900. In addition, the “EC50 (read off the curve)” value in assay [3] was about 1 nM.

B5: TR-F (bispecific antibody, human IgG1, kappa)
light: EVQLVQSGAEVKKPGATVKISCKVSGYSITDYLLHWVQQAPGKCLEWMGWIDPEDAKTKYGQKFQSRVTITADTSTDTAYMELSSLRSEDTAVYYCAANSGTGTMDAWGQGTLVTVSSGGGGSGGGGSGGGGSDIVMTQSPATLSVSPGERATLSCKASQNVGSNVDWYQQKPGQSPRVLIYKASIRYTGIPARFSGSGSGTEFTLTISILQSEDFAVYFCMQSKSYPITFGCGTKLEIKGGGGSGGGGSGGGGSDIVMTQSPPTLSLSPGERATLSCRSSKSLLHSNGNTYLYWFQQKPGQSPQLLIYRMSNLASGIPDRFSGSGSGTDFTLTISRLEPEDFAVYYCMQHLEYPFTFGQGTKLEIKRTVAAPSVFIFPPSDEQLKSGTASVVCLLNNFYPREAKVQWKVDNALQSGNSQESVTEQDSKDSTYSLSSTLTLSKADYEKHKVYACEVTHQGLSSPVTKSFNRGEC
heavy: not shown
notes: also called antibody TR-F
Consider B5, for which the “Average FITC-A” value in assay [2] turned out to be 27600. In assay [4], the “EC50 (read off the curve)” value was about 0.5 nM. In addition, the binding result in assay [3] was “binds”.

B6: TR-G (bispecific antibody, human IgG1, kappa)
light: DIVMTQSPPTLSLSPGERATLSCRSSKSLLHSNGNTYLYWFQQKPGQSPQLLIYRMSNLASGIPDRFSGSGSGTDFTLTISRLEPEDFAVYYCMQHLEYPFTFGQGTKLEIKRTVAAPSVFIFPPSDEQLKSGTASVVCLLNNFYPREAKVQWKVDNALQSGNSQESVTEQDSKDSTYSLSSTLTLSKADYEKHKVYACEVTHQGLSSPVTKSFNRGECGGGGSGGGGSEVQLVESGGGLVQPGGSLRLSCAASGSRLDYYAVAWFRQAPGKEREEVSCITYSGGSTNYAESVKGRFTISRDNSKNTLYLQMNSLRAEDTAVYYCTTEPYGSSCPLSGYDTWGQGTLVTVSS
heavy: not shown
notes: also called antibody TR-G
On to B6, for which the “Average FITC-A” value in assay [2] stood at 33700. The “EC50 (read off the curve)” value in assay [4] was about 1 nM; in assay [3], about 0.9 nM.

B7: TR-A (bispecific antibody, human IgG1, kappa)
light: DIVMTQSPPTLSLSPGERATLSCRSSKSLLHSNGNTYLYWFQQKPGQSPQLLIYRMSNLASGIPDRFSGSGSGTDFTLTISRLEPEDFAVYYCMQHLEYPFTFGQGTKLEIKRTVAAPSVFIFPPSDEQLKSGTASVVCLLNNFYPREAKVQWKVDNALQSGNSQESVTEQDSKDSTYSLSSTLTLSKADYEKHKVYACEVTHQGLSSPVTKSFNRGEC
heavy: not shown
notes: also called antibody TR-A
B7: the “Average FITC-A” value in assay [2] was determined as 40000. In addition, the binding result in assay [3] is “binds”.

B8: TR-D (bispecific antibody, human IgG1, kappa)
light: B7 light
heavy: not shown
notes: also called antibody TR-D
As to B8, the “Average FITC-A” value in assay [2] amounted to 30300. Besides, the “IC50 (read off the curve)” value in assay [5] is about 2 nM. In assay [4], the “EC50 (read off the curve)” value is about 0.1 nM. The binding result in assay [3] is given as “binds”.

B9: TR-C (bispecific antibody, human IgG1, kappa)
light: B7 light
heavy: not shown
notes: also called antibody TR-C
For B9, the “Average FITC-A” value in assay [2] amounted to 89500. For the same molecule, the half-maximal effective concentration (EC50 (read off the curve)) in assay [3] was about 1 nM.

B10: TR-B (bispecific antibody, human IgG1, kappa)
light: B7 light
heavy: not shown
notes: also called antibody TR-B
For the molecule B10, the “Average FITC-A” value in assay [2] is 29000. Besides, the binding result in assay [3] is listed as “binds”.

One may read the EC50 (read off the curve) as the concentration that produces a half-maximal response. Read a low EC50 (read off the curve) as greater potency.
